Reference: the supplement of paper PMC9112550, “Optimization of the antimicrobial peptide Bac7 by deep mutational scanning” (BMC Biology, 2022)

tested on: Escherichia coli TOP10; assay: shrunken log2 fold change of peptide-encoding DNA abundance (4.5 h post-induction vs induction); higher = less antimicrobial activity (less host growth inhibition); conditions: time post-induction: 4.5 h; library: site-saturation at positions 5, 18, 19, 20
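Note: peptides expressed intracellularly from a pBAD plasmid library in pooled LB shake-flask culture, induced with 0.3% L-arabinose, DNA abundance read by NGS, three biological replicates, DESeq2 with apeglm shrinkage.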

Row | Sequence | shrunken log2 fold change
1 | RRIRIRPPRLPRPRPRPRYGPRP | -0.411
2 | RRIRWRPPRLPRPRPRPSQNPRP | 0.236
3 | RRIRVRPPRLPRPRPRPGWGPRP | 0.621
4 | RRIRARPPRLPRPRPRPKVWPRP | 0.766
5 | RRIRRRPPRLPRPRPRPQWRPRP | 0.364
6 | RRIRTRPPRLPRPRPRPKAYPRP | 0.0161
7 | RRIRFRPPRLPRPRPRPGKDPRP | -0.105
8 | RRIRSRPPRLPRPRPRPRPMPRP | 0.498
9 | RRIRNRPPRLPRPRPRPDMYPRP | -0.00473
10 | RRIRARPPRLPRPRPRPTLKPRP | 0.605
11 | RRIRRRPPRLPRPRPRPEPRPRP | 1.02
12 | RRIRRRPPRLPRPRPRPRNGPRP | 0.144
13 | RRIRKRPPRLPRPRPRPGHDPRP | 0.141
14 | RRIRSRPPRLPRPRPRPLPSPRP | 0.255
15 | RRIRCRPPRLPRPRPRPEGCPRP | 3.02
16 | RRIRERPPRLPRPRPRPRHHPRP | -0.0796
17 | RRIRWRPPRLPRPRPRPMVTPRP | -0.072
18 | RRIRIRPPRLPRPRPRPMAGPRP | 0.022
19 | RRIRTRPPRLPRPRPRPENGPRP | 0.0885
20 | RRIRPRPPRLPRPRPRPKNYPRP | -0.428
21 | RRIRWRPPRLPRPRPRPDIEPRP | -0.0323
22 | RRIRDRPPRLPRPRPRPPQMPRP | 0.746
23 | RRIRNRPPRLPRPRPRPIKAPRP | -0.0167
24 | RRIRIRPPRLPRPRPRPFHKPRP | -0.196
25 | RRIRDRPPRLPRPRPRPLFLPRP | -0.13

Row | Sequence | shrunken log2 fold change
26 | RRIRARPPRLPRPRPRPNAAPRP | 1.13
27 | RRIRSRPPRLPRPRPRPVPNPRP | 0.105
28 | RRIRQRPPRLPRPRPRPKWYPRP | -0.118
29 | RRIRMRPPRLPRPRPRPWCNPRP | -0.016
30 | RRIRARPPRLPRPRPRPRWDPRP | 0.768
31 | RRIRARPPRLPRPRPRPMPQPRP | 0.378
32 | RRIRGRPPRLPRPRPRPHQTPRP | 0.242
33 | RRIRPRPPRLPRPRPRPQESPRP | -0.0337
34 | RRIRERPPRLPRPRPRPIPAPRP | -0.0833
35 | RRIRVRPPRLPRPRPRPQICPRP | -0.185
36 | RRIRVRPPRLPRPRPRPKTNPRP | -0.117
37 | RRIRFRPPRLPRPRPRPWHLPRP | -0.0307
38 | RRIRPRPPRLPRPRPRPVPKPRP | 0.34
39 | RRIRRRPPRLPRPRPRPIMWPRP | 0.121
40 | RRIRMRPPRLPRPRPRPEKNPRP | 2.16
41 | RRIRNRPPRLPRPRPRPKNTPRP | -0.462
42 | RRIRRRPPRLPRPRPRPQSNPRP | -0.285
43 | RRIRNRPPRLPRPRPRPMTRPRP | -0.386
44 | RRIRGRPPRLPRPRPRPNDDPRP | 0.349
45 | RRIRFRPPRLPRPRPRPAGQPRP | 0.171
46 | RRIRGRPPRLPRPRPRPSQHPRP | 0.0187
47 | RRIRLRPPRLPRPRPRPNPFPRP | -0.334
48 | RRIRGRPPRLPRPRPRPVCGPRP | 0.866
49 | RRIRSRPPRLPRPRPRPKEAPRP | -0.144
50 | RRIRQRPPRLPRPRPRPARQPRP | 0.182

Row | Sequence | shrunken log2 fold change
51 | RRIRRRPPRLPRPRPRPGEPPRP | 0.41
52 | RRIRGRPPRLPRPRPRPEWLPRP | 1.5
53 | RRIRVRPPRLPRPRPRPVMEPRP | -0.186
54 | RRIRTRPPRLPRPRPRPQSWPRP | 0.234
55 | RRIRVRPPRLPRPRPRPSNLPRP | -0.586
56 | RRIRGRPPRLPRPRPRPMFWPRP | 0.336
57 | RRIRERPPRLPRPRPRPMLRPRP | -0.0352
58 | RRIRPRPPRLPRPRPRPCDIPRP | 0.024
59 | RRIRQRPPRLPRPRPRPTGKPRP | -0.00964
60 | RRIRYRPPRLPRPRPRPLEIPRP | -0.00674
61 | RRIRKRPPRLPRPRPRPYQSPRP | 0.000846
62 | RRIRFRPPRLPRPRPRPDPVPRP | 0.227
63 | RRIRTRPPRLPRPRPRPSSHPRP | -0.669
64 | RRIRARPPRLPRPRPRPWAHPRP | 0.0535
65 | RRIRKRPPRLPRPRPRPTMYPRP | -0.0949
66 | RRIRNRPPRLPRPRPRPYPYPRP | -0.242
67 | RRIRIRPPRLPRPRPRPWWPPRP | 0.027
68 | RRIRYRPPRLPRPRPRPRPMPRP | -0.227
69 | RRIRHRPPRLPRPRPRPRVPPRP | -0.134
70 | RRIRTRPPRLPRPRPRPPIRPRP | -0.1
71 | RRIRQRPPRLPRPRPRPLLVPRP | -0.295
72 | RRIRKRPPRLPRPRPRPYRHPRP | -1.11
73 | RRIRFRPPRLPRPRPRPEDNPRP | -0.00777
74 | RRIRNRPPRLPRPRPRPHRMPRP | -0.0233
75 | RRIRRRPPRLPRPRPRPHITPRP | -0.385

Row | Sequence | shrunken log2 fold change
76 | RRIRSRPPRLPRPRPRPMAEPRP | 0.348
77 | RRIRKRPPRLPRPRPRPTNFPRP | 0.111
78 | RRIRGRPPRLPRPRPRPFAEPRP | 2.46
79 | RRIRHRPPRLPRPRPRPFRFPRP | -0.132
80 | RRIRMRPPRLPRPRPRPGFVPRP | 0.449
81 | RRIRWRPPRLPRPRPRPGPMPRP | 0.327
82 | RRIRKRPPRLPRPRPRPHLAPRP | 0.0615
83 | RRIRLRPPRLPRPRPRPGERPRP | 0.33
84 | RRIRNRPPRLPRPRPRPCDRPRP | 0.0883
85 | RRIRGRPPRLPRPRPRPFMWPRP | 0.211
86 | RRIRRRPPRLPRPRPRPPLVPRP | 1.23
87 | RRIRIRPPRLPRPRPRPQVKPRP | -0.405
88 | RRIRSRPPRLPRPRPRPSFKPRP | -0.542
89 | RRIRIRPPRLPRPRPRPGPSPRP | 0.108
90 | RRIRHRPPRLPRPRPRPNYQPRP | -0.28
91 | RRIRPRPPRLPRPRPRPQKRPRP | 0.151
92 | RRIRTRPPRLPRPRPRPQSVPRP | -0.104
93 | RRIRTRPPRLPRPRPRPANEPRP | -0.226
94 | RRIRPRPPRLPRPRPRPCPDPRP | 0.0391
95 | RRIRQRPPRLPRPRPRPNTCPRP | -1.35
96 | RRIRLRPPRLPRPRPRPRQSPRP | -0.0892
97 | RRIRGRPPRLPRPRPRPRMIPRP | 0.646
98 | RRIRPRPPRLPRPRPRPWYMPRP | -0.247
99 | RRIRSRPPRLPRPRPRPDQDPRP | 0.142
100 | RRIRSRPPRLPRPRPRPSPQPRP | -0.108

Row | Sequence | shrunken log2 fold change
101 | RRIRKRPPRLPRPRPRPLRKPRP | 0.968
102 | RRIRIRPPRLPRPRPRPTYSPRP | -0.408
103 | RRIRMRPPRLPRPRPRPQKWPRP | -0.00664
104 | RRIRGRPPRLPRPRPRPCPMPRP | 1.17
105 | RRIRMRPPRLPRPRPRPHPWPRP | 0.227
106 | RRIRNRPPRLPRPRPRPCPMPRP | 0.151
107 | RRIRERPPRLPRPRPRPQIEPRP | -0.208
108 | RRIRLRPPRLPRPRPRPRRPPRP | 0.39
109 | RRIRGRPPRLPRPRPRPCNAPRP | 1.45
110 | RRIRARPPRLPRPRPRPWWQPRP | 0.00618
111 | RRIRNRPPRLPRPRPRPDEPPRP | -0.061
112 | RRIRVRPPRLPRPRPRPSWYPRP | -0.698
113 | RRIRCRPPRLPRPRPRPKNQPRP | -0.112
114 | RRIRDRPPRLPRPRPRPKPVPRP | 0.00913
115 | RRIRARPPRLPRPRPRPHHGPRP | -0.122
116 | RRIRKRPPRLPRPRPRPTVMPRP | 0.247
117 | RRIRDRPPRLPRPRPRPPYQPRP | 0.251
118 | RRIRGRPPRLPRPRPRPVEKPRP | 0.198
119 | RRIRCRPPRLPRPRPRPSHAPRP | -0.375
120 | RRIRLRPPRLPRPRPRPILSPRP | -0.0305
121 | RRIRIRPPRLPRPRPRPEEMPRP | -0.416
122 | RRIRDRPPRLPRPRPRPRCEPRP | 0.161
123 | RRIRHRPPRLPRPRPRPLKPPRP | 0.18
124 | RRIRLRPPRLPRPRPRPCKYPRP | -0.0018
125 | RRIRSRPPRLPRPRPRPSEYPRP | -0.306
